In publication PMC7023979 one finds stoichiometry N data, which are given here for one substance.

This assay has as its target SIVrcm integrase A119D (simian immunodeficiency virus from red-capped mangabeys (SIVrcm)). As to the kind of experiment: cryo-EM structure.

The substance SIVrcm integrase A119D (enzyme) came in with a stoichiometry N of 4.
